Numbering of substitutions follows the chain as printed.
Legend:
Assay in all cases: ITC; A1 (500 μM) in the injection syringe titrated in 2 μL increments into HA-DV or HA-DV variant (50 μM) in the sample cell; 298 K; 25 mM Hepes pH 7.1, 50 mM NaCl, 2 mM CaCl2; one site binding model
Details in all cases: both partners purified
[1] = biological target: T1, HA-tagged domain V of human β2GPI (HA-DV), wild type (human, UniProt P02749 263-345)
T1 construct: beta2-glycoprotein I (β2GPI), human, domain V, residues 244-326; also called wild type HA-DV; β2GPI-DV; source: expressed from a pET15b vector and purified as previously described [34]; not shown: HA, N-terminal, kept
T1 sequence (looked up): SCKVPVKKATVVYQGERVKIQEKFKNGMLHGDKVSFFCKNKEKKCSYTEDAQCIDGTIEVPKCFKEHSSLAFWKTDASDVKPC

HA-DV Lys308/Arg = biological target: T2, HA-DV Lys308/Arg (human, UniProt P02749 263-345, Lys308/Arg)
T2 construct: beta2-glycoprotein I (β2GPI), human, domain V, residues 244-326, Lys308 to Arg; Point mutant of m2; also called Lys308/Arg variant of HA-DV; source: expressed from a pET15b vector and purified as previously described [34]; not shown: HA, N-terminal, kept
T2 sequence (looked up): T1 sequence (looked up) with K65R

HA-DV Lys282/Arg = biological target: T3, HA-DV Lys282/Arg (human, UniProt P02749 263-345, Lys282/Arg)
T3 construct: beta2-glycoprotein I (β2GPI), human, domain V, residues 244-326, Lys282 to Arg; Point mutant of m2; also called Lys282/Arg variant of HA-DV; source: expressed from a pET15b vector and purified as previously described [34]; not shown: HA, N-terminal, kept
T3 sequence (looked up): T1 sequence (looked up) with K39R

HA-DV Leu313/Asn = biological target: T4, HA-DV Leu313/Asn (human, UniProt P02749 263-345, Leu313/Asn)
T4 construct: beta2-glycoprotein I (β2GPI), human, domain V, residues 244-326, Leu313 to Asn; Point mutant of m2; also called Leu313/Asn variant of HA-DV; source: expressed from a pET15b vector and purified as previously described [34]; not shown: HA, N-terminal, kept
T4 sequence (looked up): T1 sequence (looked up) with L70N

[2] = biological target: T5, HA-DV Leu313/Asp_Phe315/Ser (human, UniProt P02749 263-345, Leu313/Asp | Phe315/Ser)
T5 construct: beta2-glycoprotein I (β2GPI), human, domain V, residues 244-326, Leu313 to Asp and Phe315 to Ser; Double mutant of m2; source: expressed from a pET15b vector and purified as previously described [34]; not shown: HA, N-terminal, kept
T5 sequence (looked up): T1 sequence (looked up) with L70D, F72S

Measured: binding result

B1: A1, fragment of mouse ApoER2 (residues 12-47) in which Asp is substituted for Asn36 (domain or fragment)
chain: not shown
notes: source: Escherichia coli, purified as previously described [64]
binds: all assays above

From article PMC5523967, “Dimerized Domain V of Beta2-Glycoprotein I Is Sufficient to Upregulate Procoagulant Activity in PMA-Treated U937 Monocytes and Require Intact Residues in Two Phospholipid-Binding Loops” (Antibodies, 2017)
